Test results taken from patent publication US12391751B2, “Antibody against advanced glycation end products and use thereof” (Bloom Technology Corporation, priority 2018, dated 2025).

Experiments:
A-peak-BSA = A-peak-BSA (Bos taurus, UniProt P02769); test: Specificity of PB-1 by competitive ELISA (Example 30); format: binding; conditions: A-peak-BSA or Glycer-AGEs-BSA immobilized, competitor 10 μg/mL, PB-1 0.05 μg/mL
Experimental: (§1) A-peak-BSA or Glycer-AGEs-BSA prepared into a concentration of 1 μg/mL with a coating solution (Example 13) was added at 100 μL/well to a 96-well microtiter plate (Costar) and immobilized overnight at 4° C.
(§2) The plate was washed three times with PBS containing 0.05% (v/v) Tween 20 (PBS-T) and then blocked with PBS-T containing 0.5% (w/v) gelatin for 1 hour.
(§3) Bovine serum albumin (BSA), BSA containing AGEs derived from glucose (Glu-AGEs-BSA), BSA containing AGEs derived from fructose (Fru-AGEs-BSA), BSA containing AGEs derived from glycolaldehyde (Glycol-AGEs-BSA), BSA containing AGEs derived from glyceraldehyde (Glycer-AGEs-BSA), BSA containing NE-carboxyethyllysine (CEL-AGEs-BSA), BSA containing NE-carboxymethyllysine (CML-AGEs-BSA), BSA containing AGEs derived from glyoxal (GO-AGEs-BSA), BSA containing AGEs derived from methylglyoxal (MGO-AGEs-BSA), and A-peak-BSA diluted into 10 μg/mL with PBS-T containing 0.1% (w/v) gelatin were each added at 50 μL/well to the antigen-immobilized plate, and the PB-1 antibody diluted into 0.05 μg/mL with PBS-T containing 0.1% (w/v) gelatin was further added at 50 μL/well, stirred with a plate mixer, and then left standing at room temperature for 1 hour.
(§4) After washing, peroxidase-labeled anti-mouse IgG (H+L) polyclonal antibody, F(ab′)2 fragment (Kirkegaard & Perry Laboratories, Inc.) diluted into 0.05 μg/mL with PBS-T containing 0.1% (w/v) gelatin was added at 100 μL/well and left standing at room temperature for 1 hour.
(§5) After washing, ELISA POD substrate TMB kit (Nacalai Tesque, Inc.) was added at 100 μL/well and left standing at room temperature in the dark. Ten minutes later, color development was terminated by the addition of 2 N sulfuric acid (50 μL/well). Absorbance was measured at a dominant wavelength of 450 nm and a sub-wavelength of 650 nm with a microplate reader (Cytation 5, BioTek Instrument Inc.), and the absorbance at the sub-wavelength was subtracted from the absorbance at the dominant wavelength.
(§6) The ordinate of the graph depicts change in absorbance relative to that of control BSA defined as 1. When A-peak-BSA and Glycer-AGEs-BSA were immobilized, the novel monoclonal antibody PB-1 was also positive to Glycol-AGEs-BSA, Glycer-AGEs-BSA, and A-peak-BSA and negative to Glu-AGEs-BSA, Fru-AGEs-BSA, CEL-AGEs-BSA, CML-AGEs-BSA, GO-AGEs-BSA, and MGO-AGEs-BSA in terms of specificity.

CEL-AGEs-BSA = CEL-AGEs-BSA (Bos taurus, UniProt P02769); test: as above; format: binding; conditions: A-peak-BSA or Glycer-AGEs-BSA immobilized, competitor 10 μg/mL, PB-1 0.05 μg/mL
Chain of CEL-AGEs-BSA (P02769 25-607): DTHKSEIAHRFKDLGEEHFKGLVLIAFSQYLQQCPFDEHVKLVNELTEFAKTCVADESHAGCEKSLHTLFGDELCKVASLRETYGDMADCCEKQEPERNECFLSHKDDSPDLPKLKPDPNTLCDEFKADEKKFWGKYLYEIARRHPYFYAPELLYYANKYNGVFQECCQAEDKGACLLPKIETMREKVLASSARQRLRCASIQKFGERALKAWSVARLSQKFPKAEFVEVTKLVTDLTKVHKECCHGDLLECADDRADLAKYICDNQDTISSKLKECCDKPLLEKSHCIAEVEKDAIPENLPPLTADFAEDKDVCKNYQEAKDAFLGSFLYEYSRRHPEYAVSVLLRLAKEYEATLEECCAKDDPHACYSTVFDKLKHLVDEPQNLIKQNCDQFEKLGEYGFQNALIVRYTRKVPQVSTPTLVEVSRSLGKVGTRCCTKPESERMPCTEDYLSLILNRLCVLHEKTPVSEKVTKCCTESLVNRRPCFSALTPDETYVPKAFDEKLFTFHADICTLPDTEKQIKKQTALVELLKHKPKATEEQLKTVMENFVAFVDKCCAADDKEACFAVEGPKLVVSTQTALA
Experimental: as §1, §2, §3, §4, §5, §6

CML-AGEs-BSA = CML-AGEs-BSA (Bos taurus, UniProt P02769); test: as above; format: binding; conditions: A-peak-BSA or Glycer-AGEs-BSA immobilized, competitor 10 μg/mL, PB-1 0.05 μg/mL
Chain of CML-AGEs-BSA (P02769 25-607): as above
Experimental: as §1, §2, §3, §4, §5, §6

Fru-AGEs-BSA = Fru-AGEs-BSA (Bos taurus, UniProt P02769); test: as above; format: binding; conditions: A-peak-BSA or Glycer-AGEs-BSA immobilized, competitor 10 μg/mL, PB-1 0.05 μg/mL
Chain of Fru-AGEs-BSA (P02769 25-607): as above
Experimental: as §1, §2, §3, §4, §5, §6

GO-AGEs-BSA = GO-AGEs-BSA (Bos taurus, UniProt P02769); test: as above; format: binding; conditions: A-peak-BSA or Glycer-AGEs-BSA immobilized, competitor 10 μg/mL, PB-1 0.05 μg/mL
Chain of GO-AGEs-BSA (P02769 25-607): as above
Experimental: as §1, §2, §3, §4, §5, §6

Glu-AGEs-BSA = Glu-AGEs-BSA (Bos taurus, UniProt P02769); test: as above; format: binding; conditions: A-peak-BSA or Glycer-AGEs-BSA immobilized, competitor 10 μg/mL, PB-1 0.05 μg/mL
Chain of Glu-AGEs-BSA (P02769 25-607): as above
Experimental: as §1, §2, §3, §4, §5, §6

Glycer-AGEs-BSA = Glycer-AGEs-BSA (Bos taurus, UniProt P02769); test: as above; format: binding; conditions: A-peak-BSA or Glycer-AGEs-BSA immobilized, competitor 10 μg/mL, PB-1 0.05 μg/mL
Chain of Glycer-AGEs-BSA (P02769 25-607): as above
Experimental: as §1, §2, §3, §4, §5, §6

Glycol-AGEs-BSA = Glycol-AGEs-BSA (Bos taurus, UniProt P02769); test: as above; format: binding; conditions: A-peak-BSA or Glycer-AGEs-BSA immobilized, competitor 10 μg/mL, PB-1 0.05 μg/mL
Chain of Glycol-AGEs-BSA (P02769 25-607): as above
Experimental: as §1, §2, §3, §4, §5, §6

MGO-AGEs-BSA = MGO-AGEs-BSA (Bos taurus, UniProt P02769); test: as above; format: binding; conditions: A-peak-BSA or Glycer-AGEs-BSA immobilized, competitor 10 μg/mL, PB-1 0.05 μg/mL
Chain of MGO-AGEs-BSA (P02769 25-607): as above
Experimental: as §1, §2, §3, §4, §5, §6

[1] = system: HUVEC (human umbilical vein endothelial cells); test: Neutralization test of vascular endothelial cell lumen formation inhibition (Example 14); format: cell-based; conditions: antibody pre-reacted with Glycer-AGEs-BSA; HUVEC, 8 hours
Experimental: Matrigel matrix (Corning Inc.) was placed in a refrigerator and thawed overnight. The thawed Matrigel matrix was added at 300 μL/well to a 12-well plate (Corning Inc.) and hardened by still standing at 37° C. for 1 hour in a CO2 incubator (ESPEC Corp.).
10 μL of Glycer-AGEs-BSA (10 mg/mL) prepared in Example 1 or 10 μL of control BSA (10 mg/mL), phosphate-buffered saline (PBS, FUJIFILM Wako Pure Chemical Corp.), and 90 μL of SJ-5 (10 mg/mL) or a control antibody (10 mg/mL) were added to a 1.5 mL tube (Watson) and left standing at room temperature for 10 minutes. Then, a supernatant was recovered by centrifugation at 14000 rpm for 15 minutes using a centrifuge (Thermo Fisher Scientific Inc.).
HUVEC (human umbilical vein endothelial cells, National Institutes of Biomedical Innovation, Health and Nutrition, JCRB cell bank) was cultured in a 10 cm dish (Corning Inc.) using 10 mL of a medium for HUVEC (KAC Co., Ltd.).
The cultured HUVEC was washed with 10 mL of PBS. Then, 1 mL of trypsin-EDTA (FUJIFILM Wako Pure Chemical Corp.) was added thereto and left standing at room temperature for 3 minutes. […]
After the centrifugation, the supernatant was discarded, and precipitated cells were resuspended by the addition of 1 mL of a medium for HUVEC. […] Then, the number of live cells was counted in Auto Cell Counter EVE (NanoEnTek Inc.). […]

Chain of A-peak-BSA (P02769 25-607): as above

Molecule | specificity: reactivity with A-peak-BSA (A-peak-BSA) | specificity: reactivity with CEL-AGEs-BSA (CEL-AGEs-BSA) | specificity: reactivity with CML-AGEs-BSA (CML-AGEs-BSA) | specificity: reactivity with Fru-AGEs-BSA (Fru-AGEs-BSA) | specificity: reactivity with GO-AGEs-BSA (GO-AGEs-BSA) | specificity: reactivity with Glu-AGEs-BSA (Glu-AGEs-BSA) | specificity: reactivity with Glycer-AGEs-BSA (Glycer-AGEs-BSA) | specificity: reactivity with Glycol-AGEs-BSA (Glycol-AGEs-BSA) | specificity: reactivity with MGO-AGEs-BSA (MGO-AGEs-BSA) | neutralization of lumen formation inhibition by Glycer-AGEs-BSA [1]
PB-1: mouse monoclonal antibody raised against A-peak-BSA; heavy-chain variable region SEQ ID NO 18, light-chain variable region SEQ ID NO 22 (antibody, listed as Mus musculus, V domains shown) VH: EVRLQQSGPELVKPGTSVKISCKASGYSFTGYYMHWVKQSPVKSLEWIGRIIPYNGATSYNQNFKDKASLTVDKSSRTAYMDLHSLTSEDSAVYYCARSRYYGRAPYYFDYWGQGTTLTVSS VL: DVVVTQTPLSLPVSLGDQASISCRSSQSIVHSNGNTYLEWYLQKPGQSPKLLIYKVSNRFSGVPDRISGSGSGTDFTLKISRVEAGDLGVYSCFQGSHVPFTFGSGTKLEIK | positive | negative | negative | negative | negative | negative | positive | positive | negative | –
SJ-5: mouse monoclonal antibody raised against GAL13-MSA; heavy-chain variable region SEQ ID NO 4, light-chain variable region SEQ ID NO 8 (antibody, listed as Mus musculus, V domains shown) VH: EVMLVESGGRLVKPGGSLKLSCAASGFTFSSYGMSWVRQTPEKRLEWVATISGGGSYTYYPDSVKGRFTISRDNVKNNLYLQMSSLRSEDTALYYCARRGAYGDYGWFAYWGQGTLVTVSA VL: DIVLTQSPATLSVTPGDSVSLSCRASQSINNNLHWYQQKSHESPRLLIKCASQSISGIPSRFSGSGSGTDFTLSINSVETEDFGMYFCQQSNSWPLTFGAGTKLELK | – | – | – | – | – | – | – | – | – | neutralized
